Patent WO2009030872A1 (dated 2009)

B1: human monoclonal antibody clone A8 (antibody, V domains shown)
VH: EVQLLESGPGLVKPSGTLSLTCTVSGGSIRSSHWWSWVRQPPGKGLEWIGEVFFSGSTIYNPSLNDRVFMSVDKSKDQVSLRLSSVTAADTAVYYCARSPIKMNQGRMMLDAFDIWGQGTLVIVSS
VL: AELTQSPSSLSAFVGDRVTITCRASQSISRNLNWYQQKPGTAPKVLIYAASSLQSGVPSRFSGSGSGTDFTLTITSLQPEDFATYYCQQSYTTPRTFGQGTKVEVK
notes: also called mAb A8
B2: human monoclonal antibody clone 1:7 (antibody, V domains shown)
VH: VQLLEQSGAEVKKPGSSVKVSCQVFGDTFSRYTIQWLRQAPGQGPEWMGNIIPVYNTPNYAQKFQGRLSITADDSTSTAYMELSSLRSEDTAVYFCARVVIPNAIRHTMGYYFDYWGQGTLVTVSS
VL: AELTQSPATLSLSPGERATLSCRASQSVNKYLAWYQQKPGQAPRLLIYDASNRATGIPARFSGSGSGTDFTLTISNLEPEDFAVYYCQQRSDWVTFGGGTKVEIK
notes: also called mAb 1:7
B3: human monoclonal antibody clone L1 (antibody, V domains shown)
VH: EVQLLESGGGVVQPGRSLRLSCAASGFTFSAYGMHWVRQAPGKGLEWVAGIWFDGSNQYYSDSVKGRFTVSRDNSRNTLFLQMNSLRPEDTAVYYCATEVLFGSIKGRYYLENWGQGTLVTVSS
VL: AELTQSPGTLSLSVGERATLSCRASQNIYSGYLGWYQQKPGQPPRLLIYGASNRATGIPDRFSGSGSGTDFTLTISRLESEDFAVYYCQQYGSPPYTFGQGTKVEIK
notes: also called mAb L1; Ll

Assays:
[1] = molecular target: E1E2 of HCV genotype 2a isolate JFH-1 (hepatitis C virus genotype 2a, isolate …); assay: cell-based or functional assay
[2] = molecular target: T1, E1E2 of HCV genotype 1a isolate H77c (hepatitis C virus genotype 1a, strain …, UniProt P27958 386-729; P27958 193-382); assay: inferred from GNA capture ELISA binding curve by non-linear regression
[3] = molecular target: E1E2 of HCV isolate H77c with E2 substitution W529A (hepatitis C virus genotype 1a, isolate …, UniProt P27958 386-729; P27958 193-382); assay: GNA capture ELISA on alanine-substituted H77c E1E2
[4] = molecular target: E1E2 of HCV isolate H77c with E2 substitution D535A (hepatitis C virus genotype 1a, isolate …, UniProt P27958 386-729; P27958 193-382); assay: GNA capture ELISA on alanine-substituted H77c E1E2
[5] = molecular target: E1E2 of HCV isolate H77c with E2 substitution G530A (hepatitis C virus genotype 1a, isolate …, UniProt P27958 386-729; P27958 193-382); assay: GNA capture ELISA on alanine-substituted H77c E1E2
[6] = molecular target: E1E2 of HCV isolate H77c with E2 substitution G523A (hepatitis C virus genotype 1a, isolate …, UniProt P27958 386-729; P27958 193-382); assay: GNA capture ELISA on alanine-substituted H77c E1E2
[7] = molecular target: T1, E1E2 of HCV genotype 1a isolate H77c; assay: GNA capture ELISA on E1E2 of H77c

Binder | IC50 of neutralization of HCVcc JFH-1 (density of E2 after western blotting) [1] [mg/L] | Kd [2] [nM] | binding result [3] | binding result [4] | binding result [5] | binding result [6] | EC50 [7] [mg/L]
B1 | ~0.56 | ~2.7 | no binding | no binding | no binding | no binding | 0.44
B2 | ~0.06 | ~4.1 | no binding | no binding | no binding | no binding | 0.67
B3 |  | ~15 |  |  |  |  | 2.31
